T1: DFNB31_3, Q9P202
T1 sequence (Q9P202 811-907, limits assumed, looked up): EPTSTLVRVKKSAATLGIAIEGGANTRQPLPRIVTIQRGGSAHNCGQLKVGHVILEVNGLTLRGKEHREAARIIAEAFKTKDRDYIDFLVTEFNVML

T2: SIPA1L2, Q9P2F8
T2 sequence (Q9P2F8 945-1036, limits assumed, looked up): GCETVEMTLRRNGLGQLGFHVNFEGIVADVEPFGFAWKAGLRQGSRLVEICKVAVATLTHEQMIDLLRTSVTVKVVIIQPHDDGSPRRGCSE

T3: HTRA3, P83110
T3 sequence (P83110 354-453, limits assumed, looked up): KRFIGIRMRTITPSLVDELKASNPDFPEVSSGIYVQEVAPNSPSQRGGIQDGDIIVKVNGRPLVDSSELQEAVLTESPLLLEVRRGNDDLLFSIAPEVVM

T4: APBA2_2, Q99767
T4 sequence (Q99767 654-744, limits assumed, looked up): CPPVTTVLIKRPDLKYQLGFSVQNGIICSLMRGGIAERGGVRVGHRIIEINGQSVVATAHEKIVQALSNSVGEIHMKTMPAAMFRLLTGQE

T5: SNTG1, Q9NSN8
T5 sequence (Q9NSN8 52-150, limits assumed, looked up): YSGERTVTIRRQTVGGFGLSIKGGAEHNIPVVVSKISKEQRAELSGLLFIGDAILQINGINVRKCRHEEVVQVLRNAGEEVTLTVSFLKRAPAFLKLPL

T6: PDZD7_3, Q9H5P4
T6 sequence (Q9H5P4 857-944, limits assumed, looked up): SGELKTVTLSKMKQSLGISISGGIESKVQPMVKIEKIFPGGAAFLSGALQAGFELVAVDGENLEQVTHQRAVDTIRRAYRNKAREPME

T7: ARHGAP21, Q5T5U3
T7 sequence (Q5T5U3 45-169, limits assumed, looked up): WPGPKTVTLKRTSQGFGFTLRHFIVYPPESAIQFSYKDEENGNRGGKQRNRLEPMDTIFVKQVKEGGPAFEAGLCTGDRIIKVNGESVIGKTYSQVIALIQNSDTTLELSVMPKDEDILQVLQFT

T8: CARD11, Q9BXL7
T8 sequence (Q9BXL7 662-765, limits assumed, looked up): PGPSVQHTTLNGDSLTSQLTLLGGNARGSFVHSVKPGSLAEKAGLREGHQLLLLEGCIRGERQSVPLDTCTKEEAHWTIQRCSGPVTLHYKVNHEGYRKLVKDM

T9: TJP3_3, O95049
T9 sequence (O95049 375-456, limits assumed, looked up): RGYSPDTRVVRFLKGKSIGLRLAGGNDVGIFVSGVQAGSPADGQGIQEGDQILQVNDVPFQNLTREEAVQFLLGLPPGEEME

T10: FRMPD1, Q5SYB0
T10 sequence (Q5SYB0 52-145, limits assumed, looked up): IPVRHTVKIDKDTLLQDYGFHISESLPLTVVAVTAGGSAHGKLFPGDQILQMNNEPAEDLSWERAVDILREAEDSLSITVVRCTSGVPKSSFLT

T11: PARD3B_1, Q8TEW8
T11 sequence (Q8TEW8 196-299, limits assumed, looked up): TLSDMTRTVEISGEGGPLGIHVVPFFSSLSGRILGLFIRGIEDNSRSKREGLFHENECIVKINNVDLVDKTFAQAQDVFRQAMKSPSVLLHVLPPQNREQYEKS

T12: SNTA1, Q13424
T12 sequence (Q13424 82-180, limits assumed, looked up): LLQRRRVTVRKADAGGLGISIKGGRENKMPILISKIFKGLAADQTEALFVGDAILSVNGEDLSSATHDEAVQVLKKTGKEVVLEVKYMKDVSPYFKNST

T13: DFNB31_1, Q9P202
T13 sequence (Q9P202 135-233, limits assumed, looked up): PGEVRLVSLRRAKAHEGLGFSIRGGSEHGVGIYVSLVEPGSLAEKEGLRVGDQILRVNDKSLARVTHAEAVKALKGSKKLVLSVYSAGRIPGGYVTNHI

B1: PLCB2, Q00722 (peptide)
chain: AKADAQESRL
B2: CD226, Q15762 (peptide)
chain: TFSRRPKTRV
B3: ZNF599, Q96NL3 (peptide)
chain: THHRKIHTRV

Each binder was assayed against TJP2_1, Q9UDY2 (assay: holdup assay). Conditions: plain residues with an end cap or a label only (N-terminal biotin on a linker: ado-ado).
TJP2_1, Q9UDY2, sequence (Q9UDY2 24-128): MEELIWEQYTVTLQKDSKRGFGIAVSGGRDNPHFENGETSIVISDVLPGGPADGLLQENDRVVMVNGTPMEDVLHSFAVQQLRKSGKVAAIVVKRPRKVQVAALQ
Parameters: key: below the threshold = too weak to quantify, mostly under pKd 3.1 to 4

Binder	pKd
B1	below the threshold
B2	4.25
B3	4.6

Each binder was assayed against NHERF4_2, Q86UT5 (assay: holdup assay). Conditions: plain residues with an end cap or a label only (N-terminal biotin on a linker: ado-ado).
NHERF4_2, Q86UT5, sequence (Q86UT5 220-308): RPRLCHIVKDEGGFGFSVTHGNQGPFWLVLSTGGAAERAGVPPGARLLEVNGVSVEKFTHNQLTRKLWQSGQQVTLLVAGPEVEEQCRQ
Parameters: key: below the threshold = too weak to quantify, mostly under pKd 3.1 to 4

Binder	pKd
B1	below the threshold
B2	below the threshold
B3	below the threshold

These binders were tested against T1, DFNB31_3, Q9P202 (assay: holdup assay). Conditions: plain residues with an end cap or a label only (N-terminal biotin on a linker: ado-ado).
Parameters: key: below the threshold = too weak to quantify, mostly under pKd 3.1 to 4

Binder	pKd
B1	below the threshold
B2	below the threshold
B3	below the threshold

What follows are binders tested against T2, SIPA1L2, Q9P2F8 (assay: holdup assay). Conditions: plain residues with an end cap or a label only (N-terminal biotin on a linker: ado-ado).
Parameters: key: below the threshold = too weak to quantify, mostly under pKd 3.1 to 4

Binder	pKd
B1	below the threshold
B2	below the threshold
B3	below the threshold

What follows are binders tested against MAGI1_2, Q96QZ7 (assay: holdup assay). Conditions: plain residues with an end cap or a label only (N-terminal biotin on a linker: ado-ado).
MAGI1_2, Q96QZ7, sequence (Q96QZ7 456-580): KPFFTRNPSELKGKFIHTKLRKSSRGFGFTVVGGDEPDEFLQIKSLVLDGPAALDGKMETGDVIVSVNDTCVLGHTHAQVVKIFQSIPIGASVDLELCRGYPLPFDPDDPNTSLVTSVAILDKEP
Parameters: key: below the threshold = too weak to quantify, mostly under pKd 3.1 to 4

Binder	pKd
B1	below the threshold
B2	4.75
B3	4.96

These binders were tested against T3, HTRA3, P83110 (assay: holdup assay). Conditions: plain residues with an end cap or a label only (N-terminal biotin on a linker: ado-ado).
Parameters: key: below the threshold = too weak to quantify, mostly under pKd 3.1 to 4

Binder	pKd
B1	below the threshold
B2	below the threshold
B3	below the threshold

The binders below were run against GRIP2_3, Q9C0E4 (assay: holdup assay). Conditions: plain residues with an end cap or a label only (N-terminal biotin on a linker: ado-ado).
GRIP2_3, Q9C0E4, sequence (Q9C0E4 238-339): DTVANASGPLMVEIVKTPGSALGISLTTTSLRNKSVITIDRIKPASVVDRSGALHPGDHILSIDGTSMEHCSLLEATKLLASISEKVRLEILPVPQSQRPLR
Parameters: key: below the threshold = too weak to quantify, mostly under pKd 3.1 to 4

Binder	pKd
B1	below the threshold
B2	below the threshold
B3	below the threshold

The binders below were run against T4, APBA2_2, Q99767 (assay: holdup assay). Conditions: plain residues with an end cap or a label only (N-terminal biotin on a linker: ado-ado).
Parameters: key: below the threshold = too weak to quantify, mostly under pKd 3.1 to 4

Binder	pKd
B1	below the threshold
B2	below the threshold
B3	3.49

The binders below were run against T5, SNTG1, Q9NSN8 (assay: holdup assay). Conditions: plain residues with an end cap or a label only (N-terminal biotin on a linker: ado-ado).
Parameters: key: below the threshold = too weak to quantify, mostly under pKd 3.1 to 4

Binder	pKd
B1	below the threshold
B2	below the threshold
B3	3.61

These binders were tested against T6, PDZD7_3, Q9H5P4 (assay: holdup assay). Conditions: plain residues with an end cap or a label only (N-terminal biotin on a linker: ado-ado).
Parameters: key: below the threshold = too weak to quantify, mostly under pKd 3.1 to 4

Binder	pKd
B1	4.29
B2	4.5
B3	4.53

These binders were tested against T7, ARHGAP21, Q5T5U3 (assay: holdup assay). Conditions: plain residues with an end cap or a label only (N-terminal biotin on a linker: ado-ado).
Parameters: key: below the threshold = too weak to quantify, mostly under pKd 3.1 to 4

Binder	pKd
B1	below the threshold
B2	4.06
B3	4.01

The binders below were run against GRIP2_7, Q9C0E4 (assay: holdup assay). Conditions: plain residues with an end cap or a label only (N-terminal biotin on a linker: ado-ado).
GRIP2_7, Q9C0E4, sequence (Q9C0E4 934-1023): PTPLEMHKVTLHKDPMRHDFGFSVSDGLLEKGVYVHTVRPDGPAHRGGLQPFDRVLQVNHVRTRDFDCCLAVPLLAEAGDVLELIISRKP
Parameters: key: below the threshold = too weak to quantify, mostly under pKd 3.1 to 4

Binder	pKd
B1	below the threshold
B2	below the threshold
B3	3.66

Each binder was assayed against LIMK2, P53671 (assay: holdup assay). Conditions: plain residues with an end cap or a label only (N-terminal biotin on a linker: ado-ado).
LIMK2, P53671, sequence (P53671 143-248): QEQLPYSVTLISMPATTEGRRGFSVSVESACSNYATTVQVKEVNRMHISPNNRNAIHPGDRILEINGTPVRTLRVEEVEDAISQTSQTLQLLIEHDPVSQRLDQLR
Parameters: key: below the threshold = too weak to quantify, mostly under pKd 3.1 to 4

Binder	pKd
B1	below the threshold
B2	below the threshold
B3	below the threshold

These binders were tested against SCRIB_1, Q14160 (assay: holdup assay). Conditions: plain residues with an end cap or a label only (N-terminal biotin on a linker: ado-ado).
SCRIB_1, Q14160, sequence (Q14160 718-814): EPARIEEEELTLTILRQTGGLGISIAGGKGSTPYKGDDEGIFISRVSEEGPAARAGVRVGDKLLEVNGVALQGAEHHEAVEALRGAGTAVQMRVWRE
Parameters: key: below the threshold = too weak to quantify, mostly under pKd 3.1 to 4

Binder	pKd
B1	4.2
B2	below the threshold
B3	3.98

The binders below were run against T8, CARD11, Q9BXL7 (assay: holdup assay). Conditions: plain residues with an end cap or a label only (N-terminal biotin on a linker: ado-ado).
Parameters: key: below the threshold = too weak to quantify, mostly under pKd 3.1 to 4

Binder	pKd
B1	below the threshold
B2	below the threshold
B3	below the threshold

What follows are binders tested against T9, TJP3_3, O95049 (assay: holdup assay). Conditions: plain residues with an end cap or a label only (N-terminal biotin on a linker: ado-ado).
Parameters: key: below the threshold = too weak to quantify, mostly under pKd 3.1 to 4

Binder	pKd
B1	below the threshold
B2	below the threshold
B3	below the threshold

Each binder was assayed against TJP1_2, Q07157 (assay: holdup assay). Conditions: plain residues with an end cap or a label only (N-terminal biotin on a linker: ado-ado).
TJP1_2, Q07157, sequence (Q07157 181-274): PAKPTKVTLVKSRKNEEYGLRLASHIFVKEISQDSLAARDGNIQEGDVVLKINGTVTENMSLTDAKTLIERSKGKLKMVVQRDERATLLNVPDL
Parameters: key: below the threshold = too weak to quantify, mostly under pKd 3.1 to 4

Binder	pKd
B1	below the threshold
B2	3.5
B3	3.62

The binders below were run against T10, FRMPD1, Q5SYB0 (assay: holdup assay). Conditions: plain residues with an end cap or a label only (N-terminal biotin on a linker: ado-ado).
Parameters: key: below the threshold = too weak to quantify, mostly under pKd 3.1 to 4

Binder	pKd
B1	below the threshold
B2	below the threshold
B3	below the threshold

Each binder was assayed against GORASP1, Q9BQQ3 (assay: holdup assay). Conditions: plain residues with an end cap or a label only (N-terminal biotin on a linker: ado-ado).
GORASP1, Q9BQQ3, sequence (Q9BQQ3 1-208): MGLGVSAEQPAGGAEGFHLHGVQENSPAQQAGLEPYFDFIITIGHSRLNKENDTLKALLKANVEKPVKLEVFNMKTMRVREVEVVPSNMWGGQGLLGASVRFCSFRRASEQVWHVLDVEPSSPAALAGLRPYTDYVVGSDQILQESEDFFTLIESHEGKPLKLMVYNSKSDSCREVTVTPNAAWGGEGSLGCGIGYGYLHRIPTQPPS
Parameters: key: below the threshold = too weak to quantify, mostly under pKd 3.1 to 4

Binder	pKd
B1	below the threshold
B2	3.75
B3	3.87

What follows are binders tested against PARD3_3, Q8TEW0 (assay: holdup assay). Conditions: plain residues with an end cap or a label only (N-terminal biotin on a linker: ado-ado).
PARD3_3, Q8TEW0, sequence (Q8TEW0 582-685): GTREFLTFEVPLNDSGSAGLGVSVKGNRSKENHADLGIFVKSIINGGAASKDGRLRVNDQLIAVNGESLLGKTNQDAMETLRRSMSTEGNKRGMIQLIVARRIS
Parameters: key: below the threshold = too weak to quantify, mostly under pKd 3.1 to 4

Binder	pKd
B1	3.48
B2	below the threshold
B3	below the threshold

The binders below were run against T11, PARD3B_1, Q8TEW8 (assay: holdup assay). Conditions: plain residues with an end cap or a label only (N-terminal biotin on a linker: ado-ado).
Parameters: key: below the threshold = too weak to quantify, mostly under pKd 3.1 to 4

Binder	pKd
B1	4.47
B2	below the threshold
B3	below the threshold

Each binder was assayed against T12, SNTA1, Q13424 (assay: holdup assay). Conditions: plain residues with an end cap or a label only (N-terminal biotin on a linker: ado-ado).
Parameters: key: below the threshold = too weak to quantify, mostly under pKd 3.1 to 4

Binder	pKd
B1	4.2
B2	3.79
B3	4.3

The binders below were run against SCRIB_3, Q14160 (assay: holdup assay). Conditions: plain residues with an end cap or a label only (N-terminal biotin on a linker: ado-ado).
SCRIB_3, Q14160, sequence (Q14160 999-1103): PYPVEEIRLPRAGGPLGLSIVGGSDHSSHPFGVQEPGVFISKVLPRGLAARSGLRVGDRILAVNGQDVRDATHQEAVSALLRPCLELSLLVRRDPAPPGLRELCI
Parameters: key: below the threshold = too weak to quantify, mostly under pKd 3.1 to 4

Binder	pKd
B1	4.44
B2	below the threshold
B3	3.75

These binders were tested against T13, DFNB31_1, Q9P202 (assay: holdup assay). Conditions: plain residues with an end cap or a label only (N-terminal biotin on a linker: ado-ado).
Parameters: key: below the threshold = too weak to quantify, mostly under pKd 3.1 to 4

Binder	pKd
B1	4.11
B2	below the threshold
B3	3.82
